Biological target: Nematocida displodere mechanosensitive ion channel of small conductance 2, MscS2Δ2–29 (His14-SUMO tag cleaved) (Nematocida displodere)
Assay: cryo-EM structure; single-particle, 0.33 mg/mL in DDM, 200 kV Glacios; consensus refinement without symmetry 8.3 Å, focused refinement of two channels 7.7 Å

How did the heptameric channels in the superstructure turn out when “Nematocida displodere mechanosensitive ion channel of small conductance 2, MscS2Δ2–29 (His14-SUMO tag cleaved) (domain or fragment)” was run?
Its heptameric channels in the superstructure is 6.

And the stoichiometry N?
The stoichiometry N was 7.

Source: paper PMC11262690
